From patent US20250296959A1, “B7-H3 TARGETING PEPTIDES AND CONSTRUCTS THEREOF” (Mariana Oncology Inc., priority 2024, published 2025)
Each block holds one binder with its values, some of them ahead of it. Starred links: 1 amine or outer side, 2 acyl side, 3 side chain; linkers in the order of their positions; H or OH if unused. Positions of bridges follow the written chain, without caps; N, C: chain ends. Non-standard residues stand in square brackets, D forms with d. *: point of attachment. Ala(piperidin-4-yl) = O=C([C@H](CC1CCN([*:3])CC1)N[*:1])[*:2]; DOTA = O=C(O)CN1CCN(CC(=O)O)CCN(CC(=O)*)CCN(CC(=O)O)CC1; Trp(5-F) = N[C@@H](Cc1c[nH]c2ccc(F)cc12)C(=O)O; Pro(cis-4-F) = O=C(O)[C@@H]1C[C@H](F)CN1; γGlu = O=C(O)[C@H](CCC(=O)[*:2])N[*:1]; Ala(4-THP) = N[C@@H](CC1CCOCC1)C(=O)O; AEF = NCCOc1ccc(C[C@H](N)C(=O)O)cc1; Val(3-OH) = CC(C)(O)[C@H](N)C(=O)O; Hyp = O=C(O)[C@@H]1C[C@@H](O)CN1; 4Pal = N[C@@H](Cc1ccncc1)C(=O)O; aThr = C[C@H](O)[C@H](N)C(=O)O; Tle = CC(C)(C)[C@H](N)C(=O)O; hLeu = CC(C)CC[C@H](N)C(=O)O; Pip = O=C(O)[C@@H]1CCCCN1; Nle = CCCC[C@H](N)C(=O)O; Sar = CNCC(=O)O

Legend:
[1] = molecular target: T1, Biotinylated human 4Ig B7-H3 (human, UniProt Q5ZPR3 29-461, limits assumed, biotinylated (site not stated)); experiment: SPR 25C; C = 10<KD<=100 nM
T1 construct: Protein captured on the SA chip for SPR; also called 4lg-B7-H3; B7-H3 isoform 4Ig
T1 sequence: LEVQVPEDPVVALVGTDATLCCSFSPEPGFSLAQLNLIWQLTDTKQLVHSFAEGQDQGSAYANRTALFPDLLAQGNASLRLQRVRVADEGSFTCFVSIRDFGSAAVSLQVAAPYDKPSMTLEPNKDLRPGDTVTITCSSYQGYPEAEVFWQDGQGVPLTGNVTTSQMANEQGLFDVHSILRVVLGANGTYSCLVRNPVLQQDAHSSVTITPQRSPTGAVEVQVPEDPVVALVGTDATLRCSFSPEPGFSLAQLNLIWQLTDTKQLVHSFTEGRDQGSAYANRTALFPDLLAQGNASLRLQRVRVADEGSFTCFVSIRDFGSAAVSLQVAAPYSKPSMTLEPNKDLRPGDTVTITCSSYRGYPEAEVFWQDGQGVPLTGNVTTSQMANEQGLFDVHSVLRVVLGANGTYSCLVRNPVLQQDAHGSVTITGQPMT

2Ig B7-H3 [2] = molecular target: T2, 2Ig B7-H3 (UniProt Q5ZPR3-2 29-245, limits assumed); experiment: SPR, 25C
T2 construct: also called 2lg-B7-H3; B7-H3 isoform 2Ig
T2 sequence (looked up): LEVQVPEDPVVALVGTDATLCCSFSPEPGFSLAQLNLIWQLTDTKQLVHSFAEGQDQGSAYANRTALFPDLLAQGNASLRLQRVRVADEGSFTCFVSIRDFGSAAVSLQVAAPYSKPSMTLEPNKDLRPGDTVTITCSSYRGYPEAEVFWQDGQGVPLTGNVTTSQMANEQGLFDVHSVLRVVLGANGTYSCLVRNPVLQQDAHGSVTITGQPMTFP

[3] = molecular target: Biotinylated human 4Ig B7-H3 (human) (UniProt Q5ZPR3); experiment: SPR 37C; C = 10<KD<=100 nM
[4] = molecular target: T1, Biotinylated human 4Ig B7-H3; experiment: SPR 37C; B = 1.0<KD<=10 nM
[5] = molecular target: T1, Biotinylated human 4Ig B7-H3; experiment: SPR 25C; B = 1.0<KD<=10 nM
[6] = molecular target: T1, Biotinylated human 4Ig B7-H3; experiment: SPR 37C; A = KD<=1.0 nM
[7] = molecular target: T1, Biotinylated human 4Ig B7-H3; experiment: SPR 25C; A = KD<=1.0 nM
[8] = molecular target: T1, Biotinylated human 4Ig B7-H3; experiment: SPR 25C; C = 10<KD<=100 nM; remark: listed apart in the source
[9] = molecular target: T1, Biotinylated human 4Ig B7-H3; experiment: SPR 25C; B = 1.0<KD<=10 nM; remark: listed apart in the source
2Ig B7-H3 [10] = molecular target: T2, 2Ig B7-H3; experiment: SPR, 37C
[11] = molecular target: T1, Biotinylated human 4Ig B7-H3; experiment: SPR 25C; D = 100<KD<=300 nM
[12] = molecular target: T1, Biotinylated human 4Ig B7-H3; experiment: SPR 37C; D = 100<KD<=300 nM
[13] = molecular target: T1, Biotinylated human 4Ig B7-H3; experiment: SPR 37C; C = 10<KD<=100 nM

Binder: Ac-[Nle]YCVGKYDVYCWF[aThr][dK](DOTA)-NH2 (disulfide 3-11) [Cpd 93]
KD [1]: 10 to 100 nM

B2: Cpd 28 (peptide)
peptide: Ac-[Nle]YCVGKYDVYCWFT[dK](DOTA)-OH
modifications: disulfide 3-11
SMILES: CCCC[C@H](NC(C)=O)C(=O)N[C@@H](Cc1ccc(O)cc1)C(=O)N[C@H]1CSSC[C@@H](C(=O)N[C@@H](Cc2c[nH]c3ccccc23)C(=O)N[C@@H](Cc2ccccc2)C(=O)N[C@H](C(=O)N[C@H](CCCCNC(=O)CN2CCN(CC(=O)O)CCN(CC(=O)O)CCN(CC(=O)O)CC2)C(=O)O)[C@@H](C)O)NC(=O)[C@H](Cc2ccc(O)cc2)NC(=O)[C@H](C(C)C)NC(=O)[C@H](CC(=O)O)NC(=O)[C@H](Cc2ccc(O)cc2)NC(=O)[C@H](CCCCN)NC(=O)CNC(=O)[C@H](C(C)C)NC1=O
KD [4]: 1 to 10 nM
KD [5]: 1 to 10 nM

B4: Cpd 1 (peptide)
peptide: Ac-MYCVGKYDVYCWF-NH2
modifications: disulfide 3-11
SMILES: CSCC[C@H](NC(C)=O)C(=O)N[C@@H](Cc1ccc(O)cc1)C(=O)N[C@H]1CSSC[C@@H](C(=O)N[C@@H](Cc2c[nH]c3ccccc23)C(=O)N[C@@H](Cc2ccccc2)C(N)=O)NC(=O)[C@H](Cc2ccc(O)cc2)NC(=O)[C@H](C(C)C)NC(=O)[C@H](CC(=O)O)NC(=O)[C@H](Cc2ccc(O)cc2)NC(=O)[C@H](CCCCN)NC(=O)CNC(=O)[C@H](C(C)C)NC1=O
KD [11]: 100 to 300 nM
KD [12]: 100 to 300 nM

Binder: Ac-[Nle]YCVGKYDVYCWFT[dK](DOTA)-NH2 (disulfide 3-11) [Cpd 27]
KD [4]: 1 to 10 nM
KD [5]: 1 to 10 nM

B5: Cpd 36 (peptide)
peptide: Ac-[Nle]YCVGKYDVYCWF[γGlu][γGlu]-NH2
modifications: disulfide 3-11
SMILES: CCCC[C@H](NC(C)=O)C(=O)N[C@@H](Cc1ccc(O)cc1)C(=O)N[C@H]1CSSC[C@@H](C(=O)N[C@@H](Cc2c[nH]c3ccccc23)C(=O)N[C@@H](Cc2ccccc2)C(=O)N[C@@H](CCC(=O)N[C@@H](CCC(N)=O)C(=O)O)C(=O)O)NC(=O)[C@H](Cc2ccc(O)cc2)NC(=O)[C@H](C(C)C)NC(=O)[C@H](CC(=O)O)NC(=O)[C@H](Cc2ccc(O)cc2)NC(=O)[C@H](CCCCN)NC(=O)CNC(=O)[C@H](C(C)C)NC1=O
KD [12]: 100 to 300 nM

Binder: Ac-[Nle]YCV[Sar]KYDVYCWF-NH2 (disulfide 3-11) [Cpd 26]
KD [1]: 10 to 100 nM
KD [13]: 10 to 100 nM

Now from value to binder:

Kd (2Ig B7-H3 [2]): 860 nM
B1: Cpd 301 (peptide)
peptide: Ac-[hLeu]YCVG[Ala(piperidin-4-yl)][AEF](DOTA)DVYC[Trp(5-F)]FP-NH2
modifications: disulfide 3-11
SMILES: CC(=O)N[C@@H](CCC(C)C)C(=O)N[C@@H](Cc1ccc(O)cc1)C(=O)N[C@H]1CSSC[C@@H](C(=O)N[C@@H](Cc2c[nH]c3ccc(F)cc23)C(=O)N[C@@H](Cc2ccccc2)C(=O)N2CCC[C@H]2C(N)=O)NC(=O)[C@H](Cc2ccc(O)cc2)NC(=O)[C@H](C(C)C)NC(=O)[C@H](CC(=O)O)NC(=O)[C@H](Cc2ccc(OCCNC(=O)CN3CCN(CC(=O)O)CCN(CC(=O)O)CCN(CC(=O)O)CC3)cc2)NC(=O)[C@H](CC2CCNCC2)NC(=O)CNC(=O)[C@H](C(C)C)NC1=O

KD [3]: 10 to 100 nM
Binder: Ac-[hLeu]YC[Tle]GK(DOTA)[Ala(4-THP)]DVYC[Trp(5-F)]F[Val(3-OH)]-OH (disulfide 3-11 (inferred)) [Cpd 322]

KD [6]: ≤ 1 nM
KD [7]: ≤ 1 nM
B3: Cpd 295 (peptide)
peptide: Ac-[hLeu]YCVGK[AEF](DOTA)DVYC[Trp(5-F)]FT-NH2
modifications: disulfide 3-11
SMILES: CC(=O)N[C@@H](CCC(C)C)C(=O)N[C@@H](Cc1ccc(O)cc1)C(=O)N[C@H]1CSSC[C@@H](C(=O)N[C@@H](Cc2c[nH]c3ccc(F)cc23)C(=O)N[C@@H](Cc2ccccc2)C(=O)N[C@H](C(N)=O)[C@@H](C)O)NC(=O)[C@H](Cc2ccc(O)cc2)NC(=O)[C@H](C(C)C)NC(=O)[C@H](CC(=O)O)NC(=O)[C@H](Cc2ccc(OCCNC(=O)CN3CCN(CC(=O)O)CCN(CC(=O)O)CCN(CC(=O)O)CC3)cc2)NC(=O)[C@H](CCCCN)NC(=O)CNC(=O)[C@H](C(C)C)NC1=O

KD [8]: 10 to 100 nM
Binder: Ac-[hLeu]YCIGK(DOTA)[4Pal]DVYC[Trp(5-F)]F[Pip]-NH2 (disulfide 3-11) [Cpd 269]

KD [9]: 1 to 10 nM
Kd (2Ig B7-H3 [10]): 7000 nM
Binder: Ac-[hLeu]YCIGK(DOTA)[4Pal]DVYC[Trp(5-F)]F[Pro(cis-4-F)]-NH2 (disulfide 3-11) [Cpd 268]

KD [8]: 10 to 100 nM
Binder: Ac-[hLeu]YCIGK(DOTA)[4Pal]DVYC[Trp(5-F)]F[Hyp]-NH2 (disulfide 3-11) [Cpd 267]
